Consider 116 sequences from the supplement of paper PMC10724198.

± gives the standard deviation of the averaged measurements.
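Also: PSI is a weighted mean of sequencing reads over stability bins, variants kept only with over 10 reads, mCherry proximal and sfGFP distal, peptide attached via GGGS linker.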

For the series, the system named is Saccharomyces cerevisiae. Put plainly: protein stability index of tFT-peptide fusion (C-terminal peptide) (PSI (0-1 scale)); higher = more stable (slower turnover). Conditions: genetic background: wild type; temperature: 30 C. On the procedure:
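Multiplexed protein stability (MPS) profiling in S. cerevisiae. Random 12-aa peptides (tFT-X12 library) are fused to the C-terminus of a sfGFP-mCherry tandem fluorescent timer, after mCherry and a GGGS linker. Cells are FACS-sorted into 8 mCherry/sfGFP bins and deep-sequenced. The protein stability index (PSI) is the read-weighted bin average, scaled from 0 (unstable) to 1 (stable). Only peptides with >10 reads are reported; cells were grown at 30 °C in SC-His with glucose.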
With GGRVAGSMGVGG, the protein stability index came to 0.68 ± 0.02.

In the case of GGRWGGVSLGGR, the protein stability index is 0.693 ± 0.11.

Regarding GGSESRGSDRWE, the protein stability index came out at 0.633 ± 0.038.

As to GGSGQGAGAVWG, the protein stability index is 0.63 ± 0.076.

As for GGSNEKARGTGR, the protein stability index turned out to be 0.6544 ± 0.00083.

GGSVGGGTGWRM: the protein stability index worked out at 0.65 ± 0.022.

Turning to GGVGGASMSGTP, the protein stability index was 0.674 ± 0.037.

Take GGVGVGVGCGGR: the protein stability index was 0.6828 ± 0.0017.

GGVRGERSDLRT returned a protein stability index of 0.712 ± 0.028.

For GGVVLTWVGENC, the protein stability index was found to be 0.704 ± 0.061.

In the case of GGWEGLRGLGVG, the protein stability index came out at 0.634 ± 0.031.

The sequence GGWGGAGQWADG displayed a protein stability index of 0.706 ± 0.011.

The sequence GGWGGKLVGRMG came in with a protein stability index of 0.708 ± 0.0083.

GGWGVGVWGVGG displayed a protein stability index of 0.753 ± 0.08.

GGWKINYVEENR displayed a protein stability index of 0.663 ± 0.011.

GGWTFGSPPYEI had a protein stability index of 0.693 ± 0.015.

In the case of GGYSNRNVEVIV, the protein stability index is 0.6323 ± 0.003.

The sequence GHKVTKDAIRIR displayed a protein stability index of 0.6545 ± 0.0047.

With GHRMMWLFGVPA, the protein stability index turned out to be 0.59 ± 0.035.

For GHSNVTSQIRRG, the protein stability index turned out to be 0.643 ± 0.017.

Turning to GHVRVVVRRRVI, the protein stability index was 0.5812 ± 0.0021.

With GHWTRRPSVKGK, the protein stability index is 0.643 ± 0.0092.

For GICIVGGCGCVG, the protein stability index was determined as 0.612 ± 0.068.

GINFEIKFKRYN yielded a protein stability index of 0.764 ± 0.055.

Consider GIRRSLALSAIS, for which the protein stability index was determined as 0.555 ± 0.017.

Regarding GISKHGAITSRI, the protein stability index was 0.725 ± 0.0033.

As to GIVDCTKVIGLP, the protein stability index is 0.722 ± 0.028.

GKARLATGESAL displayed a protein stability index of 0.674 ± 0.031.

With GKCKRYENISKR, the protein stability index was found to be 0.629 ± 0.0095.

GKCLEGCCLVWG had a protein stability index of 0.686 ± 0.008.

On to GKEGGKAGKISE, for which the protein stability index came to 0.667 ± 0.028.

GKEKRKEGERRK returned a protein stability index of 0.697 ± 0.12.

GKPTPRRPEKDG came in with a protein stability index of 0.6096 ± 0.0051.

In the case of GKRKGETGNRGG, the protein stability index was determined as 0.741 ± 0.19.

On to GKRKKRRKRRRT, for which the protein stability index stood at 0.664 ± 0.043.

GKRRKKDGNKKR: the protein stability index worked out at 0.621 ± 0.066.

The sequence GKSTFWTELAII displayed a protein stability index of 0.648 ± 0.045.

Take GKYIPHGNPSMA: the protein stability index stood at 0.685 ± 0.051.

GLAIRRDWLGWV: the protein stability index was found to be 0.745 ± 0.056.

In turn, GLCGGFGGLRGL showed a protein stability index of 0.743 ± 0.031.

On to GLCLFPAFSFPF, for which the protein stability index stood at 0.671 ± 0.089.

In turn, GLCVFVNKPSIL gave a protein stability index of 0.711 ± 0.011.

Regarding GLCVGVGLVWKL, the protein stability index was found to be 0.65 ± 0.07.

As to GLDEGCRVGEEV, the protein stability index worked out at 0.643 ± 0.013.

For the sequence GLFDLLCHCCWL, the protein stability index was 0.702 ± 0.05.

For the sequence GLFNIDLFRFVR, the protein stability index amounted to 0.732 ± 0.041.

GLFPGSRLRLVE returned a protein stability index of 0.666 ± 0.011.

Turning to GLFVDIRLHRRT, the protein stability index is 0.71 ± 0.017.

Sequence GLGGGRCFWGVG yielded a protein stability index of 0.686 ± 0.061.

Regarding GLGGGVGGGLVV, the protein stability index is 0.7045 ± 0.0046.

On to GLGGSKKGEQRL, for which the protein stability index is 0.674 ± 0.012.

GLGLVSWEAGGV gave a protein stability index of 0.68 ± 0.025.

GLGTRLSAVVLS: the protein stability index was determined as 0.625 ± 0.039.

GLGWPPGEARRV registered a protein stability index of 0.621 ± 0.047.

GLIATWMYKFVF showed a protein stability index of 0.617 ± 0.038.

As for GLLAIVLYEYTG, the protein stability index is 0.537 ± 0.0083.

Sequence GLLARESLSFRH returned a protein stability index of 0.675 ± 0.026.

Turning to GLLGVGDFRTEF, the protein stability index came to 0.638 ± 0.048.

With GLMTISFPSFFR, the protein stability index was found to be 0.704 ± 0.068.

Sequence GLMYDGVGCGGD registered a protein stability index of 0.671 ± 0.012.

In turn, GLNGGRLEGERR came in with a protein stability index of 0.731 ± 0.11.

For GLNLDLSGRLAF, the protein stability index worked out at 0.703 ± 0.032.

As for GLQFYPFLSVVR, the protein stability index stood at 0.617 ± 0.013.

GLQIERAVGIRH had a protein stability index of 0.708 ± 0.028.

GLRLGRVWVGGW came in with a protein stability index of 0.6647 ± 0.0026.

As to GLRRSTRSRLVF, the protein stability index came to 0.593 ± 0.12.

Sequence GLRRTGRISGSV yielded a protein stability index of 0.7 ± 0.0076.

Turning to GLRSKLEKVQRG, the protein stability index amounted to 0.726 ± 0.047.

Sequence GLSCESLRLFFR showed a protein stability index of 0.702 ± 0.015.

For the sequence GLSFSAALFSAF, the protein stability index worked out at 0.673 ± 0.05.

Turning to GLSHPPNFLPSG, the protein stability index was 0.6505 ± 0.00088.

With GLSIVGAALHSA, the protein stability index came to 0.663 ± 0.025.

With GLSSGLWAFWWP, the protein stability index is 0.749 ± 0.049.

GLTCKSTASCKV registered a protein stability index of 0.693 ± 0.01.

Turning to GLVCRKGSMGVR, the protein stability index amounted to 0.671 ± 0.057.

The sequence GLVFSFSACPVL had a protein stability index of 0.653 ± 0.066.

In turn, GLVGCLFFCCIG displayed a protein stability index of 0.558 ± 0.013.

GLVGLSLSSCGR: the protein stability index was determined as 0.653 ± 0.088.

The sequence GLVLPGHLTLAS returned a protein stability index of 0.628 ± 0.08.

In turn, GLVRGRLVGLED displayed a protein stability index of 0.646 ± 0.056.

GLVVATECGGRP had a protein stability index of 0.648 ± 0.024.

Sequence GLVVWFFQSPHF displayed a protein stability index of 0.597 ± 0.036.

GLYAVHEAGWRP had a protein stability index of 0.701 ± 0.089.

As for GLYVDRTVEVGG, the protein stability index was found to be 0.6228 ± 0.0035.

In turn, GMADVCRVGSRG showed a protein stability index of 0.674 ± 0.033.

With GMRAGLGRWRSM, the protein stability index was determined as 0.737 ± 0.1.

Turning to GNELLINRVKPR, the protein stability index was found to be 0.698 ± 0.0085.

In the case of GNGRGKKEGPKN, the protein stability index is 0.657 ± 0.01.

With GNIKPNEDRGGP, the protein stability index stood at 0.793 ± 0.027.

Take GNRVGQREEIEK: the protein stability index was 0.655 ± 0.023.

GNRWSLTVTPNR had a protein stability index of 0.69 ± 0.028.

Turning to GNSAGSGGGGRF, the protein stability index worked out at 0.706 ± 0.061.

Consider GNSNDPALQPKQ, for which the protein stability index is 0.68 ± 0.044.

Turning to GPALLLHRLTAP, the protein stability index is 0.684 ± 0.066.

On to GPCPHLGLVVES, for which the protein stability index was found to be 0.703 ± 0.34.

For the sequence GPFPMRRTFRFA, the protein stability index came out at 0.667 ± 0.056.

The sequence GPGRGWQGGPKL gave a protein stability index of 0.739 ± 0.023.

Take GPIGVMLCNHHS: the protein stability index is 0.674 ± 0.015.

GPPPAPPPLDAL returned a protein stability index of 0.734 ± 0.053.

GPPPPATPTPPR had a protein stability index of 0.767 ± 0.075.

In the case of GPRSLVEITITD, the protein stability index worked out at 0.669 ± 0.029.

The sequence GPSLLAAQAHTN showed a protein stability index of 0.704 ± 0.038.

Consider GPSQLRLSSCSF, for which the protein stability index came to 0.716 ± 0.041.

In turn, GPSTPPPRAPGT returned a protein stability index of 0.7045 ± 0.0031.

Sequence GPTPAPSASRCF came in with a protein stability index of 0.6114 ± 0.0058.

Sequence GPVFLPLFWAGV registered a protein stability index of 0.6846 ± 0.0051.

Take GPVGPGECYDYT: the protein stability index was 0.706 ± 0.00044.

In turn, GPVLILLSNNEM showed a protein stability index of 0.731 ± 0.061.

Consider GPVTPADASPHC, for which the protein stability index stood at 0.686 ± 0.034.

In turn, GQFASFQSTRPP registered a protein stability index of 0.754 ± 0.077.

GQGKWGGGGDER had a protein stability index of 0.68276 ± 0.0003.

GQKRKKKGGKEE returned a protein stability index of 0.685 ± 0.065.

Turning to GQLAERYRPARP, the protein stability index came to 0.6903 ± 0.003.

In turn, GQNASYFPRRTG showed a protein stability index of 0.643 ± 0.052.

Take GQRGGRGKENSD: the protein stability index was determined as 0.629 ± 0.04.

As for GQTTVLPSIYKR, the protein stability index was found to be 0.673 ± 0.047.
